From patent publication US9358023B2, “Systems and methods for opening of a tissue barrier” (priority 2009, dated 2016)

B1: BDNF: BDNF Human Recombinant produced in Escherichia Coli, homodimer, non-glycosylated, 2×119 amino acids, 27 kDa (protein, UniProt P23560 19-247, looked up)
Neurotrophic factor BDNF …: APMKEANIRGQGGLAYPGVRTHGTLESVNGPKAGSRGLTSLADTFEHVIEELLDEDQKVRPNEENNKDADLYTSRVMLSSQVPLEPPLLFLLEEYKNYLDAANMSMRVRRHSDPARRGELSVCDSISEWVTAADKKTAVDMSGGTVTVLEKVPVSKGQLKQYFYETKCNPMGYTKEGCRGIDKRHWNSQCRTTQSYVRALTMDSKKRIGWRFIRIDTSCVCTLTIKRGR
modifications: E. coli-expressed, non-glycosylated homodimer
notes: BDNF Human Recombinant produced in Escherichia Coli, homodimer, non-glycosylated, 2×119 amino acids, 27 kDa

Legend:
blood-brain barrier [1] = assay: Volume and duration of FUS-induced BBB opening with size-isolated microbubbles, by Gd-DTPA-BMA contrast-enhanced T1 MRI; type: in vivo, mice (C57BL/6)
Text: Acoustic waves used were generated by a single-element, spherical-segment FUS transducer (center frequency: 1.5 MHz, focal depth: 60 mm, radius: 30 mm; Imasonic, France), which was driven by a function generator (Agilent, Palo Alto, Calif.) through a 50-dB power amplifier (E&I, Rochester, N.Y.) (for example as shown in FIG. 5). A central-void (radius: 11.2 mm) of the therapeutic transducer held a pulse-echo ultrasound transducer (center frequency: 10 MHz, focal length: 60 mm), which was used for imaging, with their two foci aligned. The imaging transducer was driven by a pulser-receiver (Olympus, Waltham, Mass.) connected to a digitizer (Gage Applied Technologies, Lachine, QC, Canada). A cone filled with degassed and distilled water was mounted onto the transducer system and was fitted with a polyurethane membrane (Trojan; Church & Dwight Co., Princeton, N.J.). The transducers were attached to a computer-controlled 3D positioning system (Velmex, Lachine, QC, Canada). The targeting procedure has been described herein. […]
BBB opening in the murine hippocampus was confirmed using a 9.4 T system (Broker Medical; Boston, Mass.). […] Vital signals were monitored and respiration rate was approximately 55 breaths/min. […] In the five cases where signal enhancement was detected on day 5, MRI sessions were repeated on day 7. […]

[2] = in vivo; cited from earlier work
[3] = tested on: phosphorylated MAPK (T202-T204); assay: Immunohistochemistry DAB stain intensity after FUS and BDNF: phosphorylated MAPK; type: in vivo, mice (C57Bl6)
Procedure: (§1) Immunohistochemistry was performed only in the case of BDNF. Five primary antibodies were used: two against phosphorylated TrkB receptor (p-Y816 rabbit polyclonal [ab75173] and p-Y515, rabbit polyclonal [ab51187]) purchased from Abeam Inc. (Cambridge, Mass.), and three against phosphorylated Akt (p-S473 rabbit monoclonal [#4060]), phosphorylated MAPK (p-T202/T204 rabbit monoclonal [#4370]), and phosphorylated CREB (p-S133 rabbit monoclonal [#9198]), all purchased from Cell Signaling Technology (Danvers, Mass.). Slides containing thin frozen sections (5-10 μm) were dried and placed in a citrate buffer (pH 6.0) for antigen retrieval using a microwave. Slides were allowed to cool for 20 minutes prior to a PBS rinse (3×5 min) and then incubated in 0.3% hydrogen peroxide in PBS (five min) to block endogenous peroxidase activity. Slides were washed again in PBS (3×5 min) and blocked in 10% normal goat serum with 0.1% BSA for 20 minutes. After blocking solution was removed, the primary antibodies were diluted in DAKO antibody diluent solution (1:50-1:300) and incubated for 60 minutes at room temperature. Slides were washed in PBS for five min and incubated with biotinylated secondary antibody (goat anti-rabbit 1:200; Vector Laboratories, Burlingame, Calif.) for 30 minutes at room temperature. […]

[4] = tested on: phosphorylated TrkB receptor (pTrkB Y816 and Y515); assay: Immunohistochemistry DAB stain intensity after FUS and BDNF: phosphorylated TrkB; type: in vivo, mice (C57Bl6)
Procedure: as §1

[5] = tested on: phosphorylated Akt (S473); assay: Immunohistochemistry DAB stain intensity after FUS and BDNF: phosphorylated Akt; type: in vivo, mice (C57Bl6)
Procedure: as §1

[6] = tested on: ACHE (acetylcholine esterase); conditions: dose-dependent induction of ACHE, rat basal forebrain primary septal culture; according to the supplier; cited from earlier work
[7] = tested on: phosphorylated CREB (S133); assay: Immunohistochemistry DAB stain intensity after FUS and BDNF: phosphorylated CREB; type: in vivo, mice (C57Bl6)
Procedure: as §1

blood-brain barrier [8] = assay: Delivery of Alexa Fluor 594-tagged BDNF across the FUS-opened BBB, fluorescence of brain sections; conditions: mouse sacrificed 20 min after sonication
[9] = BDNF-administered mice, sacrificed 20-30 min, N=3

Row | Molecule | time to peak signal enhancement in the sonicated hippocampus after IP injection (blood-brain barrier [1]) | half-life of circulating BDNF [2] | mean percent change in DAB stain intensity between left and right hippocampal regions, pMAPK [3, 9] [%] | difference in DAB intensity between sonicated and control hippocampus, pMAPK ([3]; mouse sacrificed 3 min) | mean percent change in DAB stain intensity between left and right hippocampal regions, pTrkB (Y515 and Y816 combined) [4, 9] [%] | difference in DAB intensity between left sonicated hippocampus and control, pTrkB ([4]; mouse expiring 3 min after BDNF injection) | difference in DAB intensity between left sonicated hippocampus and control, pAkt ([5]; 3-min case) | mean percent change in DAB stain intensity, pAkt, BDNF-administered mice vs control mice ([5]; sacrificed 20-30 min) | ED50 [6] [µg/mL] | difference in DAB intensity between left sonicated hippocampus and control, pCREB ([7]; 3-min case) | mean percent change in DAB stain intensity between left and right hippocampal regions, pCREB [7, 9] [%] | fluorescent intensity, sonicated hippocampus (left) vs un-sonicated hippocampus (right) (blood-brain barrier [8])
1 | CNC(=O)CN(CCN(CCN(CC(=O)[O-])CC(=O)NC)CC(=O)[O-])CC(=O)[O-].[Gd+3] [Gd-DTPA-BMA] | approximately 1 h | – | – | – | – | – | – | – | – | – | – | –
2 | B1 | – | less than 10 min | 60.58 | No difference in DAB intensity | 25.22 | observed | not | similar | 0.05 | not | 56.91 | much higher fluorescent intensity
